Test results as given in paper PMC5971433.

Experiments:
[1] = target: MtrAB (native, the MtrAB component of the MtrCAB complex) (Shewanella oneidensis MR-1); test: small-angle neutron scattering (SANS); co-purified native MtrCAB at 3.5 and 9.7 mg/ml in 20 mM HEPES pH 7.8, 100 mM NaCl, 2.8 mM Fos-choline-12, 13% D2O (detergent contrast-matched); molecular mass from I(0), ab initio envelope
[2] = target: MtrCAB porin–cytochrome complex (Shewanella oneidensis MR-1)

Row | Substance | stoichiometry N [1] | rate of electron transfer from STC internalised in MtrCAB proteoliposomes to external Fe(III) citrate (absorbance at 550 nm) (nM electrons s^-1) [2] | rate of electron transfer from external sodium dithionite to STC internalised in MtrCAB proteoliposomes (absorbance at 550 nm) (nM electrons s^-1) [2]
1 | MtrC (native, from the MtrCAB complex) (natural protein) | 1 | – | –
2 | small tetraheme cytochrome (STC) (natural protein) | – | 61 | 140
